Target: cGAS (cyclic GMP-AMP synthase) of the Serratia marcescens E2-CBASS operon, N-terminal 6×His-tag (Serratia marcescens)
Experiment: in vitro covalent bonding assay

rate of isopeptide bond (+DTT) formation: 0.5 min⁻¹ | rate of total bond (thioester+isopeptide, -DTT) formation: 0.63 min⁻¹
Substance: E2 of the Serratia marcescens E2-CBASS operon, N-terminal 6×His-tag (enzyme)
